We go through ten substances from patent publication US20220324955A1.

In this assay the target is human neonatal Fc-receptor (FcRn) (human) (UniProt P55899). Briefly: FcRn affinity column chromatography.
human neonatal Fc-receptor (FcRn) (human), sequence (P55899 24-297 limits assumed, chain 1 of 2): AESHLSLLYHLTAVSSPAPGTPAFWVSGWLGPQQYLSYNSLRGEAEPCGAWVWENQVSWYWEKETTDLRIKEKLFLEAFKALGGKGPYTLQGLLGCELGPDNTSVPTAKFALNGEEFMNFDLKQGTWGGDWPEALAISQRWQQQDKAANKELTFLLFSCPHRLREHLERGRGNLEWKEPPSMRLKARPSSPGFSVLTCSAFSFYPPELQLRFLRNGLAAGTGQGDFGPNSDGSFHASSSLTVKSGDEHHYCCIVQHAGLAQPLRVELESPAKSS
human neonatal Fc-receptor (FcRn) (human), sequence (P61769 21-119 limits assumed, chain 2 of 2, further chain): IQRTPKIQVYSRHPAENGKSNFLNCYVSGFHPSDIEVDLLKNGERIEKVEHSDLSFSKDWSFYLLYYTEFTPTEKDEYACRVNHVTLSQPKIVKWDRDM
Substance “IgG1 Fc-region with L234A/L235A/P329G and symmetric Y436A” came in with a FcRn-affinity column retention time of 41.3 min.
“anti-HER2 antibody, symmetric mutation E430H”: the retention time was 46.4 min.
“anti-HER2 antibody, symmetric mutation K288E”: the retention time stood at 45.2 min.
Same read-out and setting: the value for “anti-HER2 antibody, symmetric mutation K290H” was 46.2 min.
The substance “anti-HER2 antibody, symmetric mutation K317H” gave a retention time of 46.3 min.
On the same count and under the same terms, under “anti-HER2 antibody, symmetric mutation L309H” stands 45.5 min; under “anti-HER2 antibody, symmetric mutation N434H”, 52 min.
For “anti-HER2 antibody, symmetric mutation Q311H”, the retention time was found to be 46.3 min.
Substance “anti-HER2 antibody, symmetric mutation R255D” gave a retention time of 41.4 min.
Consider “anti-HER2 antibody, symmetric mutation T256H”, for which the retention time was determined as 46 min.
